The text below walks through data of ChEMBL document CHEMBL1671790, “A new β-carbonic anhydrase from Brucella suis, its cloning, characterization, and inhibition with sulfonamides and sulfamates, leading to impaired pathogen growth” (Bioorg Med Chem, 2011).

Substrate in series [1]: O=C=O
Kind of series: Activity at human carbonic anhydrase VA by spectrophotometry at pH 7.5.

Substrate in series [2]: O=C=O
Kind of series: Ratio of kcat to Km for human carbonic anhydrase VA.

Substrate in series [3]: O=C=O
Description: Activity at human carbonic anhydrase XII by spectrophotometry at pH 7.5.

Substrate in series [4]: O=C=O
Description: Ratio of kcat to Km for human carbonic anhydrase XII.

B1: Carbonic anhydrase 5A, mitochondrial (Homo sapiens), P35218 (protein)
chain: MLGRNTWKTSAFSFLVEQMWAPLWSRSMRPGRWCSQRSCAWQTSNNTLHPLWTVPVSVPGGTRQSPINIQWRDSVYDPQLKPLRVSYEAASCLYIWNTGYLFQVEFDDATEASGISGGPLENHYRLKQFHFHWGAVNEGGSEHTVDGHAYPAELHLVHWNSVKYQNYKEAVVGENGLAVIGVFLKLGAHHQTLQRLVDILPEIKHKDARAAMRPFDPSTLLPTCWDYWTYAGSLTTPPLTESVTWIIQKEPVEVAPSQLSAFRTLLFSALGEEEKMMVNNYRPLQPLMNRKVWASFQATNEGTRS
In the case of B1, the kcat in series [1] came out at 2.9 ×10⁵ /s. Also, the kcat/Km in series [2] was 2.9 ×10⁷ /M/s.

B2: Carbonic anhydrase 12 (Homo sapiens), O43570 (protein)
chain: MPRRSLHAAAVLLLVILKEQPSSPAPVNGSKWTYFGPDGENSWSKKYPSCGGLLQSPIDLHSDILQYDASLTPLEFQGYNLSANKQFLLTNNGHSVKLNLPSDMHIQGLQSRYSATQLHLHWGNPNDPHGSEHTVSGQHFAAELHIVHYNSDLYPDASTASNKSEGLAVLAVLIEMGSFNPSYDKIFSHLQHVKYKGQEAFVPGFNIEELLPERTAEYYRYRGSLTTPPCNPTVLWTVFRNPVQISQEQLLALETALYCTHMDDPSPREMINNFRQVQKFDERLVYTSFSQVQVCTAAGLSLGIILSLALAGILGICIVVVVSIWLFRRKSIKKGDNKGVIYKPATKMETEAHA
B2: the kcat in series [3] is 4.2 ×10⁵ /s. Also, the kcat/Km in series [4] came out at 3.5 ×10⁷ /M/s.
